Here are results for one substance from patent publication US20230304047A1.

In this experiment the target is wildtype S. pyogenes Cas9 (S. pyogenes) (UniProt Q99ZW2). The experiment is described as follows: cell-based or functional assay.
Chain of UniProt Q99ZW2 (Q99ZW2 whole entry): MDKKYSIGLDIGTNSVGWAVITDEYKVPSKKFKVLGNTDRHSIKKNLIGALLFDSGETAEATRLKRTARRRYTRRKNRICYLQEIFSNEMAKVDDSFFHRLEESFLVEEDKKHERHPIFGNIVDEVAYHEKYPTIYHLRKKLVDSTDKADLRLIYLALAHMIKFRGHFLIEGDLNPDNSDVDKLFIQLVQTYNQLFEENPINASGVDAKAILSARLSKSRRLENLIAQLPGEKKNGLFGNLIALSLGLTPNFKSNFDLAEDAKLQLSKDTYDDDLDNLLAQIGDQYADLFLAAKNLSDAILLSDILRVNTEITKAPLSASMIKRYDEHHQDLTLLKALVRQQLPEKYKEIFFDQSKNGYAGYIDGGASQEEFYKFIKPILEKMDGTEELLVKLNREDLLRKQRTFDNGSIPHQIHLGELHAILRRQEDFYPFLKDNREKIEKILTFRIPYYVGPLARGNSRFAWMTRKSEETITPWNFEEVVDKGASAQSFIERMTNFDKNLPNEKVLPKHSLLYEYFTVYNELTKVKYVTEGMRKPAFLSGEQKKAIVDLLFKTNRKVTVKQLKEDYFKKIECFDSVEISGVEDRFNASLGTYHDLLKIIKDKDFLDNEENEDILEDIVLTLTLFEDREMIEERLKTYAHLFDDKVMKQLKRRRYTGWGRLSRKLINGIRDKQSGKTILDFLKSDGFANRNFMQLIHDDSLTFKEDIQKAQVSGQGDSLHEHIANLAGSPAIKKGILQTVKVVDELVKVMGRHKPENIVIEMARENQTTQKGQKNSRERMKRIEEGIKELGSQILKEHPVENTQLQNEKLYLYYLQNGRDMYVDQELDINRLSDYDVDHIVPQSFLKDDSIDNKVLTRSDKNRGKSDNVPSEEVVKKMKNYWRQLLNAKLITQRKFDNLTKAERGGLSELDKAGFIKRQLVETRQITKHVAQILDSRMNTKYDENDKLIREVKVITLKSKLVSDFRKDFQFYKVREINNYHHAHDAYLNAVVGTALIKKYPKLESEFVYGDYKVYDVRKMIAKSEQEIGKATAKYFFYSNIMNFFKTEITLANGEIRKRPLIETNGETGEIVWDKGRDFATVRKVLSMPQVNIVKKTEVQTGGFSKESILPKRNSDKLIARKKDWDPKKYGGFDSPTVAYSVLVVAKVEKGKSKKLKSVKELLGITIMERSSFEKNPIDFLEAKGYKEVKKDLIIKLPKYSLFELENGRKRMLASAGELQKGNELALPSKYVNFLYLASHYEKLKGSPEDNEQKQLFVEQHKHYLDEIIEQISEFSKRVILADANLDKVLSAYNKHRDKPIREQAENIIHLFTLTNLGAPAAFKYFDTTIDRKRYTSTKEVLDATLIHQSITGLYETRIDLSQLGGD

Substance AcrIIA2-Cdt1 fusion protein gave an HDR (GFP correction) in RPE1 reporter cells deficient of p53, AcrIIA2-Cdt1 protein co-transfected with WT CRISPR-Cas9 RNP of 2 fold and an HDR (GFP correction) in RPE1 reporter cells, AcrIIA2-Cdt1 protein co-transfected with WT CRISPR-Cas9 RNP of 3 fold.
